For one test, the target named is HLA-A*31:01. As to the kind of experiment: IEDB peptide-MHC binding, purified MHC/direct/fluorescence; filed as Kd, often an IC50 or EC50 that approximates it; ≥ and ≤ were set here for values at or beyond the usual limits of such assays. As to conditions: source organism: Mammarenavirus lassaense.
In test [1] the target is HLA-B*39:01. The description is as above. As to conditions: source organism: Mammarenavirus lassaense.
For test [2], the target named is HLA-B*07:02. Described as above. As to conditions: source organism: Mammarenavirus lassaense.
Another test deals with HLA-B*27:05. Described as above. As to conditions: source organism: Mammarenavirus lassaense.
The target of another test is HLA-B*44:02. Described as above. As to conditions: source organism: Mammarenavirus lassaense.
In test [3] the target is HLA-A*03:01. Described as above. As to conditions: source organism: Mammarenavirus lassaense.
Test [4] has as its target HLA-A*11:01. Described as above. The following applies: source organism: Mammarenavirus lassaense.
In test [5] the target is HLA-B*46:01. Described as above. The following applies: source organism: Mammarenavirus lassaense.
The target in a further test is HLA-B*48:01. The test is described as above. The following applies: source organism: Mammarenavirus lassaense.
Test [6] addresses HLA-B*57:01. The test is described as above.
The target in another test is HLA-B*58:01. Described as above.
Test [7] concerns the target HLA-B*15:01. The description is as above. As to conditions: source organism: Mammarenavirus lassaense.
A further test concerns the target HLA-A*01:01. The test is described as above.
Test [8] concerns the target HLA-A*02:01. The test is described as above. The following applies: source organism: Mammarenavirus lassaense.
Test [9] concerns the target HLA-B*07:02. Kind of test: IEDB peptide-MHC binding, purified MHC/competitive/fluorescence; ≥ and ≤ were set here for values at or beyond the usual limits of such assays.
The target of test [10] is HLA-A*02:01. Described as above. The following applies: source organism: Zaire ebolavirus.
A further test concerns the target HLA-C*12:03. Kind of test: IEDB peptide-MHC binding, purified MHC/direct/fluorescence; filed as Kd, often an IC50 or EC50 that approximates it; ≥ and ≤ were set here for values at or beyond the usual limits of such assays.
Another test has as its target HLA-B*15:17. The description is as above.
A further test concerns the target HLA-B*15:42. Kind of test: IEDB peptide-MHC binding, purified MHC/competitive/fluorescence; filed as Kd, often an IC50 or EC50 that approximates it; ≥ and ≤ were set here for values at or beyond the usual limits of such assays. As to conditions: source organism: Yellow fever virus.
The target of a further test is HLA-B*83:01. Described as above. The following applies: source organism: Yellow fever virus.
The target in the next test is HLA-B*45:06. Described as above. The following applies: source organism: Yellow fever virus.
Another test has as its target HLA-A*24:02. As to the kind of experiment: IEDB peptide-MHC binding, purified MHC/competitive/fluorescence; ≥ and ≤ were set here for values at or beyond the usual limits of such assays. The following applies: source organism: Zaire ebolavirus.
Test [11] concerns the target HLA-B*15:01. Described as above. As to conditions: source organism: Zaire ebolavirus.
The target of test [12] is HLA-A*03:01. The test is described as above.
In test [13] the target is HLA-A*11:01. The test is described as above.
A further test has as its target HLA-A*26:01. Kind of test: IEDB peptide-MHC binding, purified MHC/competitive/fluorescence; filed as Kd, often an IC50 or EC50 that approximates it; ≥ and ≤ were set here for values at or beyond the usual limits of such assays. As to conditions: source organism: Cryptosporidium parvum Iowa II.
A further test has as its target HLA-B*18:01. The test is described as above. As to conditions: source organism: Cryptosporidium parvum Iowa II.
Test [14] addresses HLA-A*03:01. The test is described as above. As to conditions: source organism: Cryptosporidium parvum Iowa II.
Test [15] has as its target HLA-B*46:01. The test is described as above.
For another test, the target named is HLA-B*51:01. The description is as above.
For test [16], the target named is HLA-B*57:01. Described as above. As to conditions: source organism: Cryptosporidium parvum Iowa II.
The target of the next test is HLA-A*02:03. The test is described as above. As to conditions: source organism: Cryptosporidium parvum Iowa II.
Test [17] deals with HLA-B*15:01. Described as above. The following applies: source organism: Cryptosporidium parvum Iowa II.
The next test deals with HLA-A*02:11. Described as above. As to conditions: source organism: Cryptosporidium parvum Iowa II.
The target in test [18] is HLA-A*02:01. Described as above. As to conditions: source organism: Cryptosporidium parvum Iowa II.
For test [19], the target named is HLA-B*39:01. The test is described as above. As to conditions: source organism: Tetraodon nigroviridis.
The target of the next test is HLA-B*27:03. Described as above. The following applies: source organism: Tetraodon nigroviridis.
Where [20] appears, read: source organism: Mammarenavirus lassaense.
The mark [21] stands for this setting: source organism: Zaire ebolavirus.
[22] abbreviates: source organism: Mycobacterium tuberculosis.
[23] abbreviates: source organism: Vaccinia virus WR.
Setting [24] is: source organism: Vaccinia virus Copenhagen.
The mark [25] stands for this setting: source organism: Cryptosporidium parvum Iowa II.
The mark [26] stands for this setting: source organism: Cryptosporidium parvum.
The mark [27] stands for this setting: source organism: Tetraodon nigroviridis.

Data on 18 sequences can be found in the Immune Epitope Database (IEDB).

pIC50, pKd: −log10 of the molar value.

In the case of IEEVMNIVL, the pKd with HLA-A*31:01 was not above 4.70; in the test with HLA-B*39:01 [1] it was 6.02; in the test with HLA-B*07:02 [2] it was not above 4.70; with HLA-B*27:05, not above 4.70; with HLA-B*44:02 it was not above 4.70; with HLA-A*03:01 [3] it was not above 4.70. Besides, the pKd in the test with HLA-A*11:01 [4], with HLA-B*46:01 [5], with HLA-B*48:01, in the test with HLA-B*57:01 [6] (setting [20]), with HLA-B*58:01 (setting [20]) and with HLA-B*15:01 [7] was not above 4.70 in each case. In addition, the pKd with HLA-A*01:01 (setting [20]) and with HLA-A*02:01 [8] was not above 4.70 each time.
On to KVSGTGPCA, for which the pIC50 in the test with HLA-B*07:02 [9] (setting [21]) was not above 4.01; with HLA-A*02:01 [10], not above 3.93.
As for RAYWIHLMM, the pKd with HLA-C*12:03 (source organism: Mycobacterium tuberculosis C) is 8.70; with HLA-B*15:17 (setting [22]), 8.66; with HLA-B*57:01 [6] (source organism: Mycobacterium tuberculosis str. Haarlem) it was 6.78; with HLA-B*58:01 (setting [22]) it was 7.02.
As to MVIFFMSPK, the pKd in the test with HLA-B*15:42, with HLA-B*83:01 and with HLA-B*45:06 was not above 5.30 in each case.
IKRTLAAMP gave a pIC50 with HLA-B*07:02 [9] (setting [21]) not above 3.82.
On to QSVGHMMVI, for which the pIC50 with HLA-A*24:02 was 5.42; with HLA-B*07:02 [9] (setting [21]) it was 4.46; with HLA-B*15:01 [11] it was not above 3.84; in the test with HLA-A*02:01 [10] it was 5.31.
For the sequence LFPQLSAIA, the values for the pIC50 in the test with HLA-A*24:02, with HLA-B*07:02 [9] (setting [21]) and with HLA-A*02:01 [10] were 4.86, not above 3.85 and 4.49, respectively.
Consider GHGFRFEVK, for which the pIC50 with HLA-A*03:01 [12] (setting [21]) was 5.19; in the test with HLA-A*11:01 [13] (setting [21]), 5.50.
With KGYVVSRRG, in the test with HLA-A*03:01 [12] (setting [23]), the pIC50 is not above 3.99.
For TKITFALKK, the pIC50 is 4.40 with HLA-A*03:01 [12] (setting [24]) and 4.96 with HLA-A*11:01 [13] (setting [24]).
Consider IVKTVLDHI, for which the pIC50 was 5.17 with HLA-A*24:02, not above 3.77 with HLA-B*07:02 [9] (setting [21]) and not above 4.04 with HLA-A*02:01 [10].
Sequence FLSDYGPQL showed a pKd with HLA-C*12:03 (source organism: Mycobacterium tuberculosis variant bovis BCG str. Pasteur 1173P2) of 6.63.
With ERTDLFFPV, the pKd in the test with HLA-A*26:01, with HLA-B*18:01, with HLA-A*03:01 [14], with HLA-B*46:01 [15] (setting [25]), with HLA-B*51:01 (setting [25]) and in the test with HLA-B*57:01 [16] was not above 4.70 throughout. Moreover, the pKd is not above 4.70 with HLA-A*02:03, not above 4.70 in the test with HLA-B*15:01 [17], 5.55 in the test with HLA-A*02:11 and not above 4.70 with HLA-A*02:01 [18].
KPPKFRAFR showed a pIC50 with HLA-B*07:02 [9] (source organism: Vaccinia virus) not above 3.77.
As to KSFGRISVL, the pKd was not below 9.00 with HLA-C*12:03 (setting [25]), 9.10 in the test with HLA-B*15:17 (setting [26]), 6.50 with HLA-B*57:01 [6] (setting [25]) and 7.75 with HLA-B*58:01 (setting [26]).
HHAYQGDYK: the pIC50 with HLA-A*03:01 [12] (setting [21]) was 4.34; in the test with HLA-A*11:01 [13] (setting [21]), not above 4.15.
Turning to AVIRANNNR, the values for the pIC50 with HLA-A*03:01 [12] (setting [23]) and with HLA-A*11:01 [13] (setting [23]) were 5.23 and 5.67, respectively.
For NTFKFGVIY, the pKd in the test with HLA-C*12:03 (setting [27]) was not below 9.00; in the test with HLA-A*01:01 (source organism: Danio rerio), 6.28; with HLA-B*39:01 [19] it was not above 4.70; in the test with HLA-B*27:03 it was not above 4.70; with HLA-B*46:01 [15] (setting [27]), not above 4.70; with HLA-B*51:01 (setting [27]), not above 4.70.

For orientation: pKd means −log10 of the Kd, conventionally taken in molar units. A lower pKd goes with a high Kd. A word on the pIC50: it is the IC50 on a negative log10 scale, so that one unit is a factor of ten. A high value points to a small IC50.
